Measurements as given in paper PMC5752445, “Secretory leukocyte protease inhibitor (SLPI) as a potential target for inhibiting metastasis of triple-negative breast cancers” (Oncotarget, 2017).

Biological target: T1, GAL4-Rb fusion protein (pBIND-Rb) (UniProt P06400 1-928)
T1 construct: source: HEK293T, transiently transfected, mammalian two-hybrid fusion
T1 sequence (looked up): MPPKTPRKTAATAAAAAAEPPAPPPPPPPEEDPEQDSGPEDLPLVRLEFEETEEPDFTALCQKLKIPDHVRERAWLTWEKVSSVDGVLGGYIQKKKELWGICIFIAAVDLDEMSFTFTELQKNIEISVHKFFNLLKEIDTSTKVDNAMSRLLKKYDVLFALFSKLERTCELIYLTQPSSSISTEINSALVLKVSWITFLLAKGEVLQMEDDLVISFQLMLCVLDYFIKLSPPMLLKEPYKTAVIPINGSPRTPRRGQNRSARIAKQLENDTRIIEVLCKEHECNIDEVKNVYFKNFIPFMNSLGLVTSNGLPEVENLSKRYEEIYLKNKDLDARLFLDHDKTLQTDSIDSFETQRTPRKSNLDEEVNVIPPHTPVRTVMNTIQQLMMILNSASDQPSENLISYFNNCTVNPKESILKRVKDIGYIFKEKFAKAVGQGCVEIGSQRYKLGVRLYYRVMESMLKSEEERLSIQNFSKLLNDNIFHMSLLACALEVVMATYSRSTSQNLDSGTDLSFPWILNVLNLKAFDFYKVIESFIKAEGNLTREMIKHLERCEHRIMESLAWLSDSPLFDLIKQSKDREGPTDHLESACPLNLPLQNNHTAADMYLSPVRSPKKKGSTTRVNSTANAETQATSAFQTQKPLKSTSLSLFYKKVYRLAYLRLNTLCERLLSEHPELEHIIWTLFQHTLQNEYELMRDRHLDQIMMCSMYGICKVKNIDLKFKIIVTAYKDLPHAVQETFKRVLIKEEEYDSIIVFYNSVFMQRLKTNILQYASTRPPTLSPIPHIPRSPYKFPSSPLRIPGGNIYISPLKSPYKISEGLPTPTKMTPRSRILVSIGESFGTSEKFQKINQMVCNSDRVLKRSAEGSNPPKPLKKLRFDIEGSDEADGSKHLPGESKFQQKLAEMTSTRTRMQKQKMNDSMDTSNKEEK
Test: two-hybrid; mammalian two-hybrid in HEK293T: pBIND (GAL4 DNA-binding domain) and pACT (VP16 activation domain) fusions with pG5luc reporter; luciferase read 48 h after transfection; negative controls pBIND and pACT vectors
Details: partners not purified

fold activation of the reporter over the negative controls: ~7 times
B1: VP16-SLPI fusion protein (pACT-SLPI) (natural protein, UniProt P03973 1-132, looked up)
chain: MKSSGLFPFLVLLALGTLAPWAVEGSGKSFKAGVCPPKKSAQCLRYKKPECQSDWQCPGKKRCCPDTCGIKCLDPVDTPNPTRRKPGKCPVTYGQCLMLNPPNFCEMDGQCKRDLKCCMGMCGKSCVSPVKA
notes: the legend names only pACT constructs of both; source: HEK293T, transiently transfected, mammalian two-hybrid fusion
